Experimental data published in publication PMC4626632, “The structure of Medicago truncatula δ^1-pyrroline-5-carboxylate reductase provides new insights into regulation of proline biosynthesis in plants” (Frontiers in Plant Science, 2015).

Experiments:
[1] = molecular target: T1, δ^1-pyrroline-5-carboxylate reductase (MtP5CR) (Medicago truncatula, UniProt G7KRM5); experiment: X-ray crystal structure of the cocrystallized complex ([…] Å); assay type: binding
T1 construct: gene MTR_7g090160; MtP5CR_1, His6-tag cleaved; homodecamer

[2] = molecular target: T1, δ^1-pyrroline-5-carboxylate reductase (MtP5CR); experiment: NAD(P)H oxidation assay at […] nm, kinetic analysis of inhibition; assay type: biochemical
[3] = substrate: NC(=O)C1=CN([C@@H]2O[C@H](COP(=O)(O)OP(=O)(O)OC[C@H]3O[C@@H](n4cnc5c(N)ncnc54)[C@H](OP(=O)(O)O)[C@@H]3O)[C@@H](O)[C@H]2O)C=CC1; experiment: purified protein; conditions: varied: cofactor
[4] = substrate: NC(=O)C1=CN([C@@H]2O[C@H](COP(=O)(O)OP(=O)(O)OC[C@H]3O[C@@H](n4cnc5c(N)ncnc54)[C@H](O)[C@@H]3O)[C@@H](O)[C@H]2O)C=CC1; experiment: purified protein; conditions: varied: cofactor
[5] = molecular target: the molecule itself; experiment: crystal structure; space group P1, one decamer in the asymmetric unit; 100 mM HEPES/MOPS pH 7.5, 10% PEG 4000, 20% glycerol, 30 mM MgCl2, 30 mM CaCl2, 19°C; unliganded and with NAD+, NADP+ or L-proline
[6] = substrate: O=C(O)C1CCC=N1; experiment: steady-state kinetics of the purified enzyme, KM(app); assay type: biochemical, Medicago truncatula; conditions: NADPH C-terminal domain contains the P5C binding site

For NC(=O)c1ccc[n+]([C@@H]2O[C@H](COP(=O)([O-])OP(=O)(O)OC[C@H]3O[C@@H](n4cnc5c(N)ncnc54)[C@H](O)[C@@H]3O)[C@@H](O)[C@H]2O)c1 [NAD^+], the “X-ray crystal structure of the cocrystallized complex (1.85 Å)” value [1] was “In the case of NAD^+ (Figure 8A), the adenine N1 atom interacts with Nδ of Asn65”.

With O=S(=O)(O)CCN1CCN(CCO)CC1 [HEPES, 2-[4-(2-hydroxyethyl)piperazin-1-yl]ethanesulfonic acid] the Ki [2] was 1830 ± 80 µM.

B1: Medicago truncatula δ1-pyrroline-5-carboxylate reductase (enzyme, UniProt G7KRM5 1-274, looked up)
chain: MEIIPIPADSYTLGFIGAGKMAESIAKGAVRSGVLSPSRIKTAIHSNPARRTAFESIGITVLSSNDDVVRDSNVVVFSVKPQLLKDVVLKLKPLLTKDKLLVSVAAGIKMKDLQEWAGHERFIRVMPNTAATVGEAASVMSLGGAATEEDANLISQLFGSIGKIWKADDKYFDAITGLSGSGPAYIYLAIEALADGGVAAGLPRDLALSLASQTVLGAASMATQSGKHPGQLKDDVTSPGGTTIAGVHELEKAGFRGILMNAVVAAAKRSQELS
notes: P5C reductase (EC 1.5.1.2) of Medicago truncatula, isoform MtP5CR_1 (without the 29-residue insert of MtP5CR_2, A2Q2Y7); cDNA from leaf RNA; printed primers run from the ATG to the stop codon; monomer 28.5 kDa; Vector pMCSG68: His6 tag and TEV site at the N-terminus, cut off with TEV protease; Homodecamer (pentamer of dimers); also called MtP5CR; MtP5CR_1; source: E. coli BL21 Gold, purified …
In the case of B1, the Km [3] is reported as 39 ± 3 µM, the Vmax [3] is reported as 36.1 ± 0.7 μkat (mg protein)^−1 and the kcat [3] is reported as 1113 s⁻¹. For the same molecule, the kcat/Km [3] was 2.85e+07 M⁻¹ s⁻¹, the Km [4] was 468 ± 22 µM and the Vmax [4] was 92.4 ± 2.1 μkat (mg protein)^−1. For the same molecule, the kcat [4] was 2972 s⁻¹, the kcat/Km [4] was 6.35e+06 M⁻¹ s⁻¹ and the “stoichiometry N” value [5] was 10. The Km [6] was 20 ± 2 µM.
